Measurements as given in US20200055939A1 (Genentech, published 2020).

T1: MICA*008 on MEL-JUSO cells (human, UniProt Q29983 24-317)
T1 chain: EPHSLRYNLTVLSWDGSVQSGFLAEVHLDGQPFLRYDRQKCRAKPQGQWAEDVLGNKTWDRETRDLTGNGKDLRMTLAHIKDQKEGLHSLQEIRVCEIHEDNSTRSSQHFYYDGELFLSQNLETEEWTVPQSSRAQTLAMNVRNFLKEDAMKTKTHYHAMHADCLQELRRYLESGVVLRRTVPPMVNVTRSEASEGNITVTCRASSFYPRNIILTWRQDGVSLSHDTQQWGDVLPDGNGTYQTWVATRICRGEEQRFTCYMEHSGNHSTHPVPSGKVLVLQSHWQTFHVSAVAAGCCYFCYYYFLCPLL

T2: huMICA*004 alpha 3-his (human)
T2 construct: whole construct entry: GS, alpha 3 domain, GNS, His8; also called MICA004.His; MICA*004 alpha3 construct
T2 chain: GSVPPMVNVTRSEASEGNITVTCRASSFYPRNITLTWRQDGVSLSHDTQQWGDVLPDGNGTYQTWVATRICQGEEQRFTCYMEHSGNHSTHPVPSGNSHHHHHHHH

T3: huMICB*005 alpha 3-his (human)
T3 construct: whole construct entry: GS, alpha 3 domain, GNS, His8; also called MICB005.His; MICB*005 alpha3 construct
T3 chain: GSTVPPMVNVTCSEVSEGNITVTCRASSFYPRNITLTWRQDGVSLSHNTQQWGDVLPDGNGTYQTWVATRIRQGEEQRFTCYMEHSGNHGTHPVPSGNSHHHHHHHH

T4: huMICA*008 alpha 3-his (human)
T4 construct: whole construct entry: GS, alpha 3 domain (Thr204-Ser297), GNS, His8; also the construct of the FPOP experiment; also called MICA008.His; MICA*008 alpha3 construct
T4 chain: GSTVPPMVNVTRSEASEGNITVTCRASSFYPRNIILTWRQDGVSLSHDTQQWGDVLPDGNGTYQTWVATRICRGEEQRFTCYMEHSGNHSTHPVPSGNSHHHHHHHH

T5: huMICA*002 alpha 3-his (human)
T5 construct: whole construct entry: GS, alpha 3 domain, GNS, His8; also called MICA002.His; MICA*002 alpha3 construct
T5 chain: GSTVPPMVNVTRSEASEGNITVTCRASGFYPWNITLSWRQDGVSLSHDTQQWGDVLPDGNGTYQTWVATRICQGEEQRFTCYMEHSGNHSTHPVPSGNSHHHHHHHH


Assays:
[1] = molecular target: T1, MICA*008 on MEL-JUSO cells; assay: cell-based or functional assay
[2] = molecular target: MICA*004 on HCC1534 cells (human, UniProt Q29983 24-383); assay: cell-based or functional assay
[3] = molecular target: MICB*005 on HCC1534 cells (human); assay: cell-based or functional assay
huMICA*004 alpha 3-his = molecular target: T2, huMICA*004 alpha 3-his; assay: SPR, Biacore 8K, antibody on Protein A chip
huMICB*005 alpha 3-his = molecular target: T3, huMICB*005 alpha 3-his; assay: SPR, Biacore 8K, antibody on Protein A chip
huMICA*008 alpha 3-his = molecular target: T4, huMICA*008 alpha 3-his; assay: SPR, Biacore 8K, antibody on Protein A chip
huMICA*002 alpha 3-his = molecular target: T5, huMICA*002 alpha 3-his; assay: SPR, Biacore 8K, antibody on Protein A chip
For % Inhibition in this document: test concentration or dose not given here.

Binder	% Inhibition [1] [%]	% Inhibition [2] [%]	% Inhibition [3] [%]	Kd (huMICA*004 alpha 3-his) [nM]	Kd (huMICB*005 alpha 3-his) [nM]	Kd (huMICA*008 alpha 3-his) [nM]	Kd (huMICA*002 alpha 3-his) [nM]
13A9 (antibody, V domains shown, mouse variable domains) VH: QVQLQQSGAELVRPGTSVKVSCKASGYAFTNYLIEWVKQRPGQGLEWIGAINPGSGATNYNEKFKDKARLTADKSSNTAYLQFSSLTSDDSAVYFCARFLGNYFDNWGQGATLTVSS VL: DIQMTQSPASLSASVGETVTITCRASGNIHSYLAWYQQKQGKSPQLLVYYAETLADGVPSRFSGRGSGTQYSLKINSLQPEDFGSYFCQQFWTTPYTFGGGTKVEIK	-7	21	61	6.77	2.35	2.35	4.82
13A9 (m IgG2a, CHO) (antibody, V domains shown) VH: QVQLQQSGAELVRPGTSVKVSCKASGYAFTNYLIEWVKQRPGQGLEWIGAINPGSGATNYNEKFKDKARLTADKSSNTAYLQFSSLTSDDSAVYFCARFLGNYFDNWGQGATLTVSS VL: DIQMTQSPASLSASVGETVTITCRASGNIHSYLAWYQQKQGKSPQLLVYYAETLADGVPSRFSGRGSGTQYSLKINSLQPEDFGSYFCQQFWTTPYTFGGGTKVEIK	29	34	60	–	–	–	–
1D5v1 (antibody, IgG1, V domains shown, humanized variant of 1D5; also called lD5v1) VH: EIQLVQSGAEVKKPGASVKVSCKASGYAFTSQNIYWVRQAPGQGLEWIGYIEPYNVVPMYNPKFKGRATLTVDKSTSTAYMELRSLRSDDTAVYYCARSGSSNFDYWGQGTLVTVSS VL: EIVLTQSPDFQSVTPKEKVTITCSASSSISSHYLHWYQQKPDQSPKLLIYRTSNLASGVPSRFSGSGSGTDYTLTINSLEAEDAATYYCQQGSSLPLTFGQGTKVEIK	52	54	41	1.17	1.96	0.96	1.4
1D5v3 (antibody, IgG1, V domains shown, humanized variant of 1D5) VH: EIQLVQSGAEVKKPGASVKVSCKASGYAFTSQNIYWVRQAPGQGLEWIGYIEPYNVVPMYNPKFKGRATLTVDKSTSTAYLELSSLRSEDTAVYYCARSGSSNFDYWGQGTLVTVSS VL: EIVLTQSPDFQSVTPKEKVTITCSASSSISSHYLHWYQQKPDQSPKLLIYRTSNLASGVPSRFSGSGSGTDYTLTINSLEAEDAATYYCQQGSSLPLTFGQGTKVEIK	50	56	38	0.96	1.78	0.85	1.21
1D5v14 (antibody, IgG1, V domains shown, humanized variant of 1D5; also called 1D5v14 second data point) VH: EVQLVQSGAEVKKPGASVKVSCKASGYAFTSQNIYWVRQAPGQGLEWMGYIEPYNVVPMYNPKFKGRVTMTTDTSTSTAYMELRSLRSDDTAVYYCARSGSSNFDYWGQGTLVTVSS VL: DIQMTQSPSSLSASVGDRVTITCSASSSISSHYLHWYQQKPGKAPKLLIYRTSNLASGVPSRFSGSGSGTDFTLTISSLQPEDFATYYCQQGSSLPLTFGQGTKVEIK	–	–	–	1.23	2.14	1.16	1.62
1D5v4 (antibody, IgG1, V domains shown, humanized variant of 1D5) VH: EVQLVQSGAEVKKPGASVKVSCKASGYAFTSQNIYWVRQAPGQGLEWIGYIEPYNVVPMYNPKFKGRVTITRDTSTSTAYLELSSLRSEDTAVYYCARSGSSNFDYWGQGTLVTVSS VL: EIVLTQSPDFQSVTPKEKVTITCSASSSISSHYLHWYQQKPDQSPKLLIYRTSNLASGVPSRFSGSGSGTDYTLTINSLEAEDAATYYCQQGSSLPLTFGQGTKVEIK	43	46	34	6.2	16.2	7.45	6.63
1D5v5 (antibody, IgG1, V domains shown, humanized variant of 1D5) VH: EIQLVQSGAEVKKPGASVKVSCKASGYAFTSQNIYWVRQAPGQGLEWIGYIEPYNVVPMYNPKFKGRATLTVDKSTSTAYMELRSLRSDDTAVYYCARSGSSNFDYWGQGTLVTVSS VL: EIVLTQSPDFQSVTPKEKVTITCSASSSISSHYLHWYQQKPDQSPKLLIKRTSNLASGVPSRFSGSGSGTDFTLTINSLEAEDAATYYCQQGSSLPLTFGQGTKVEIK	36	39	32	2.13	3.99	1.64	2.59
1D5v2 (antibody, IgG1, V domains shown, humanized variant of 1D5) VH: EVQLVQSGAEVKKPGASVKVSCKASGYAFTSQNIYWVRQAPGQGLEWMGYIEPYNVVPMYNPKFKGRVTMTTDTSTSTAYMELRSLRSDDTAVYYCARSGSSNFDYWGQGTLVTVSS VL: EIVLTQSPDFQSVTPKEKVTITCSASSSISSHYLHWYQQKPDQSPKLLIYRTSNLASGVPSRFSGSGSGTDYTLTINSLEAEDAATYYCQQGSSLPLTFGQGTKVEIK	33	38	26	1.34	2.69	0.89	1.69
15F11 (antibody, V domains shown, mouse variable domains) VH: EIQLQQSGPELVKPGASVRVSCKPSGYAFTSNNIYWVKQSRRKSLEWIGYIDPYIGRIIYNQQFKDKATLTVDKSSSTAYMHLNSLTSEDSAVYYCSRSGERSNFDYWGQGTTLTVSS VL: EIVLTQSPTAMAASPGEKITITCSASSSISSNYLHWYQQKPGFSPKLLIYRTSNLASGVPARFSGSGSGTSYSLTIGPMEAEDVATYYCQQGGSLPLTFGAGTKVEIK	50	54	43	1.31	2.28	0.79	2.21
15F11 (m IgG2a, CHO) (antibody, V domains shown) VH: EIQLQQSGPELVKPGASVRVSCKPSGYAFTSNNIYWVKQSRRKSLEWIGYIDPYIGRIIYNQQFKDKATLTVDKSSSTAYMHLNSLTSEDSAVYYCSRSGERSNFDYWGQGTTLTVSS VL: EIVLTQSPTAMAASPGEKITITCSASSSISSNYLHWYQQKPGFSPKLLIYRTSNLASGVPARFSGSGSGTSYSLTIGPMEAEDVATYYCQQGGSLPLTFGAGTKVEIK	69	60	57	–	–	–	–
1D5 (m IgG2a, CHO) (antibody, V domains shown) VH: EIQLQQSGPELVKPGASVKVSCKASGYAFTSQNIYWVKQSHGKSLEWIGYIEPYNVVPMYNPKFKGKATLTVDKSSSSAYIHLNSLTSEDSAIYYCARSGSSNFDYWGQGTTLTVSS VL: EIILTQSPTTMAASPGEKITITCSASSSISSHYLHWYQQKSGFSPKLLIYRTSNLASGVPARFSGSGSGTSYSLTIGTMEAEDVATYYCQQGSSLPLTFGAGTKVEIK	74	59	76	–	–	–	–
6E1 (m IgG2a, CHO) (antibody, V domains shown) VH: QGQMQQSGAELVKPGASVKLSCKTSGFTFSDNYISWLKQKPGQSLEWIAWIYAGTGGSSYNQKFRDKAQLTVDTSSRTAYMQLSSLTTEDSAIYYCARHDYYGTSGAWFAYWGRGTLVTVSA VL: DVLMTQTPLSLPVSLGDQASISCRSSQHIVHSNENTYLEWYLQKPGQSPKLLIYKVSNRFSGVPDRFSGSGSGTDFTLKISRVEAEDLGVYYCFQGSHVPWTFGGGTKVEIK	36	40	47	–	–	–	–
